Reference: US20220143148A1, “COMPOSITIONS AND METHODS FOR MODULATING CGRP SIGNALING TO REGULATE INTESTINAL INNATE LYMPHOID CELLS” (The Broad Institute, Inc., priority 2019, published 2022)

Tested on: small intestinal immune cells
Test: Droplet-based scRNA-seq of small intestinal immune cells (LP and PP), OVA vs PBS, clustering and differential expression
Type: in vivo, mouse
From the text: To comprehensively characterize small intestinal immune cells, Applicants generated scRNA-Seq profiles for 58,067 immune cells collected from lamina propria (LP) and Peyer's patch (PP) regions at steady state and after induction of a type 2 inflammatory reaction to ovalbumin (OVA) (Brandt et al., 2003) (FIGS. 1A and 8A). To ensure sufficient representation of rare cells, Applicants combined a normalization strategy—removing by flow sorting either a portion of IgD+ naïve B cells, which are the most abundant cell type in PPs, or all CD19+ and CD3+ T cells (FIG. 8B, Methods)—with profiling of a sufficiently large number of cells number (P>0.99 to recover at least 15 cells from each cluster, Methods) by massively parallel scRNA-seq (Haber et al., 2017) (Methods). Applicants obtained 36,797 and 21,270 high quality cells passing initial filtering (Methods) from PP and LP regions, respectively.
Overall, Applicants annotated 27 cell subsets across the two compartments, spanning T cells, B cells, ILCs, dendritic cells (DCs), myeloid cells and stromal cells, in frequencies ranging from 0.07% to 14%. Briefly, Applicants first partitioned the cells from the PP regions by unsupervised clustering (Methods) into 46 clusters, retained the 97% of cells that were robustly assigned cell identities in each cluster (Methods), assigned the cells from the LP regions to the 46 clusters using a classifier (Methods), and visualized the data with scvis (Ding et al., 2018), a deep generative model-based method (FIGS. 1B and 8C, Methods). Next, Applicants identified genes that were differentially expressed between the cells in each cluster and the remaining cells (Table 1, Methods), as well as between pairs of clusters (Table 2), to elucidate identities of similar cell types/states. Applicants excluded from downstream analysis clusters mostly consisting of contaminants from epithelium, likely doublets, or cells with a small number of Unique Molecular Identifiers (UMIs) (FIGS. 1C and 8D), or lacking distinct markers (Methods). Altogether, Applicants retained 27 clusters spanning 85% of the cells and each associated with distinct marker genes (FIG. 8E, Methods).
To induce allergic reaction to OVA, 6 to 7 weeks old mice were sensitized twice, two weeks apart, with 50 μg of OVA plus 1 mg of aluminum potassium sulfate adjuvant via intraperitoneal injection. Two weeks later, mice were orally administered with 50 mg of OVA on every other day for a total of five times. 1 μg of α-CGRP peptide was administered simultaneously when indicated. Mice were deprived of food for 3-4 hours in cages with wood chip bedding for limiting antigen degradation in the stomach before each intragastric challenge.
Isolation of cells from Peyer's patches (PPs). Peyer's patches (PPs) were carefully dissected from the small intestine under a stereo microscope using a fine scissor, pierced once with a fine forcep. Tissues were digested in freshly made digestion buffer (RPMI-1640 containing 100 μg/ml Liberase™ and 50 μg/ml DNase I at 37° C. on a roto-mixer. After 15 min, tissues were very gently mixed using a 1 ml pipette. The supernatant was collected and added to ice-cold MACS buffer (pH 7.4; PBS plus 2% FCS and 2 mM EDTA). Pre-warmed (37° C.) fresh digestion buffer was added to the remaining tissues. After rotation at 37° C. for 15 min, the mixture was vigorously mixed using a 1 ml pipette for 1 min. Supernatants from the two steps were combined and passed through 70 μm filters and stained for FACS (below).
Isolation of cells from the lamina propria (LP). The small intestines were opened longitudinally and washed in ice-cold PBS. For scRNA-seq, roughly 0.5 cm of fragments from each of the distal, middle and proximal regions without visible PPs were collected. Epithelial cells were dissociated by tissue rotation in pre-warmed (37° C.) PBS containing 10 mM EDTA at 37° C. for 15 min, followed by additional incubation on ice for 15 min. Tissues were then shaken vigorously. […]

B1: OVA (protein, UniProt P01012 2-386, looked up)
Ovalbumin: GSIGAASMEFCFDVFKELKVHHANENIFYCPIAIMSALAMVYLGAKDSTRTQINKVVRFDKLPGFGDSIEAQCGTSVNVHSSLRDILNQITKPNDVYSFSLASRLYAEERYPILPEYLQCVKELYRGGLEPINFQTAADQARELINSWVESQTNGIIRNVLQPSSVDSQTAMVLVNAIVFKGLWEKAFKDEDTQAMPFRVTEQESKPVQMMYQIGLFRVASMASEKMKILELPFASGTMSMLVLLPDEVSGLEQLESIINFEKLTEWTSSNVMEERKIKVYLPRMKMEEKYNLTSVLMAMGITDVFSSSANLSGISSAESLKISQAVHAAHAEINEAGREVVGSAEAGVDAASVSEEFRADHPFLFCIKHIATNAVLFFGRCVSP
Tsc22d3 LN (average fold change) (PP, cluster ID 9, OVA vs PBS): 1.031
Tubb5 LN (average fold change) (PP, cluster ID 9, OVA vs PBS): −0.244
Uba52 LN (average fold change) (PP, cluster ID 9, OVA vs PBS): 0.365
Ubb LN (average fold change) (PP, cluster ID 9, OVA vs PBS): −0.190
Wdr89 LN (average fold change) (PP, cluster ID 9, OVA vs PBS): 0.469
Zfp36l2 LN (average fold change) (PP, cluster ID 9, OVA vs PBS): 1.590
1110059E24Rik percentage of expressing cells in OVA-treated group (PP, cluster ID 10): 0.507
Apobec1 percentage of expressing cells in OVA-treated group (PP, cluster ID 10): 0.807
Basp1 percentage of expressing cells in OVA-treated group (PP, cluster ID 10): 0.755
Btg1 percentage of expressing cells in OVA-treated group (PP, cluster ID 10): 0.985
Cd47 percentage of expressing cells in OVA-treated group (PP, cluster ID 10): 0.602
Crlf3 percentage of expressing cells in OVA-treated group (PP, cluster ID 10): 0.658
Ddit4 percentage of expressing cells in OVA-treated group (PP, cluster ID 10): 0.296
Dusp1 percentage of expressing cells in OVA-treated group (PP, cluster ID 10): 0.451
Egln2 percentage of expressing cells in OVA-treated group (PP, cluster ID 10): 0.558
Hspa8 percentage of expressing cells in OVA-treated group (PP, cluster ID 10): 0.975
Igha percentage of expressing cells in OVA-treated group (PP, cluster ID 10): 0.405
Napsa percentage of expressing cells in OVA-treated group (PP, cluster ID 10): 0.776
Ppp1r21 percentage of expressing cells in OVA-treated group (PP, cluster ID 10): 0.165
Rsrp1 percentage of expressing cells in OVA-treated group (PP, cluster ID 10): 0.722
Sesn1 percentage of expressing cells in OVA-treated group (PP, cluster ID 10): 0.402
Sh3glb2 percentage of expressing cells in OVA-treated group (PP, cluster ID 10): 0.187
Tsc22d3 percentage of expressing cells in OVA-treated group (PP, cluster ID 10): 0.689
Ttc7 percentage of expressing cells in OVA-treated group (PP, cluster ID 10): 0.244
Uba52 percentage of expressing cells in OVA-treated group (PP, cluster ID 10): 0.985
Zfp36l2 percentage of expressing cells in OVA-treated group (PP, cluster ID 10): 0.68
1110059E24Rik LN (average fold change) (PP, cluster ID 10, OVA vs PBS): 0.715
Apobec1 LN (average fold change) (PP, cluster ID 10, OVA vs PBS): 0.309
Basp1 LN (average fold change) (PP, cluster ID 10, OVA vs PBS): −0.516
Btg1 LN (average fold change) (PP, cluster ID 10, OVA vs PBS): 0.438
Cd47 LN (average fold change) (PP, cluster ID 10, OVA vs PBS): 0.638
Crlf3 LN (average fold change) (PP, cluster ID 10, OVA vs PBS): 0.396
Ddit4 LN (average fold change) (PP, cluster ID 10, OVA vs PBS): 0.864
Dusp1 LN (average fold change) (PP, cluster ID 10, OVA vs PBS): 0.614
Egln2 LN (average fold change) (PP, cluster ID 10, OVA vs PBS): 0.624
Hspa8 LN (average fold change) (PP, cluster ID 10, OVA vs PBS): −0.286
Igha LN (average fold change) (PP, cluster ID 10, OVA vs PBS): 0.162
Napsa LN (average fold change) (PP, cluster ID 10, OVA vs PBS): 0.374
Ppp1r21 LN (average fold change) (PP, cluster ID 10, OVA vs PBS): 1.045
Rsrp1 LN (average fold change) (PP, cluster ID 10, OVA vs PBS): −0.187
Sesn1 LN (average fold change) (PP, cluster ID 10, OVA vs PBS): 1.071
Sh3glb2 LN (average fold change) (PP, cluster ID 10, OVA vs PBS): 0.383
Tsc22d3 LN (average fold change) (PP, cluster ID 10, OVA vs PBS): 1.088
Ttc7 LN (average fold change) (PP, cluster ID 10, OVA vs PBS): 1.338
Uba52 LN (average fold change) (PP, cluster ID 10, OVA vs PBS): 0.287
Zfp36l2 LN (average fold change) (PP, cluster ID 10, OVA vs PBS): 1.856
Jund percentage of expressing cells in OVA-treated group (PP, cluster ID 11): 0.855
Jund LN (average fold change) (PP, cluster ID 11, OVA vs PBS): −0.624
1600014C10Rik: percentage of expressing cells in OVA-treated group (cluster ID 4, PP): 0.185
2010300C02Rik: percentage of expressing cells in OVA-treated group (cluster ID 4, PP): 0.518
2310001H17Rik: percentage of expressing cells in OVA-treated group (cluster ID 4, PP): 0.214
4921524J17Rik: percentage of expressing cells in OVA-treated group (cluster ID 4, PP): 0.161
Alyref: percentage of expressing cells in OVA-treated group (cluster ID 4, PP): 0.141
Amd1: percentage of expressing cells in OVA-treated group (cluster ID 4, PP): 0.192
Asb2: percentage of expressing cells in OVA-treated group (cluster ID 4, PP): 0.548
Azin1: percentage of expressing cells in OVA-treated group (cluster ID 4, PP): 0.135
Bin3: percentage of expressing cells in OVA-treated group (cluster ID 4, PP): 0.235
Bzw1: percentage of expressing cells in OVA-treated group (cluster ID 4, PP): 0.321
Cacybp: percentage of expressing cells in OVA-treated group (cluster ID 4, PP): 0.293
Cd69: percentage of expressing cells in OVA-treated group (cluster ID 4, PP): 0.737
Cdkn1a: percentage of expressing cells in OVA-treated group (cluster ID 4, PP): 0.256
Clec2d: percentage of expressing cells in OVA-treated group (cluster ID 4, PP): 0.261
Cwc25: percentage of expressing cells in OVA-treated group (cluster ID 4, PP): 0.12
D16Ertd472e: percentage of expressing cells in OVA-treated group (cluster ID 4, PP): 0.175
Dnaja1: percentage of expressing cells in OVA-treated group (cluster ID 4, PP): 0.705
Dnajb9: percentage of expressing cells in OVA-treated group (cluster ID 4, PP): 0.18
Egln3: percentage of expressing cells in OVA-treated group (cluster ID 4, PP): 0.172
Fam46a: percentage of expressing cells in OVA-treated group (cluster ID 4, PP): 0.099
Fibp: percentage of expressing cells in OVA-treated group (cluster ID 4, PP): 0.178
Furin: percentage of expressing cells in OVA-treated group (cluster ID 4, PP): 0.382
Gatad1: percentage of expressing cells in OVA-treated group (cluster ID 4, PP): 0.155
Gcnt2: percentage of expressing cells in OVA-treated group (cluster ID 4, PP): 0.144
Gimap3: percentage of expressing cells in OVA-treated group (cluster ID 4, PP): 0.536
Git2: percentage of expressing cells in OVA-treated group (cluster ID 4, PP): 0.3
Gnb1: percentage of expressing cells in OVA-treated group (cluster ID 4, PP): 0.419
